From PMC6769930, “Endoglin Protein Interactome Profiling Identifies TRIM21 and Galectin-3 as New Binding Partners” (Cells, 2019)

Columns and labels:
Assay in all cases: peptide or protein array; ProtoArray human protein Microarray v5.0 (over 9000 human proteins arrayed) probed with recombinant sEng in two replicates; detection with anti-endoglin mAb SN6h and HRP secondary antibody; hits with Z-score >=2.0 in both arrays
Conditions in all cases: both partners purified
[1] = molecular target: T1, Lamin A/C (LMNA), transcript variant 2 (human, UniProt P02545-2 1-572)
T1 construct: source: bought: ProtoArray human protein Microarray v5.0 (Life Technologies), individually purified and arrayed
T1 sequence (looked up): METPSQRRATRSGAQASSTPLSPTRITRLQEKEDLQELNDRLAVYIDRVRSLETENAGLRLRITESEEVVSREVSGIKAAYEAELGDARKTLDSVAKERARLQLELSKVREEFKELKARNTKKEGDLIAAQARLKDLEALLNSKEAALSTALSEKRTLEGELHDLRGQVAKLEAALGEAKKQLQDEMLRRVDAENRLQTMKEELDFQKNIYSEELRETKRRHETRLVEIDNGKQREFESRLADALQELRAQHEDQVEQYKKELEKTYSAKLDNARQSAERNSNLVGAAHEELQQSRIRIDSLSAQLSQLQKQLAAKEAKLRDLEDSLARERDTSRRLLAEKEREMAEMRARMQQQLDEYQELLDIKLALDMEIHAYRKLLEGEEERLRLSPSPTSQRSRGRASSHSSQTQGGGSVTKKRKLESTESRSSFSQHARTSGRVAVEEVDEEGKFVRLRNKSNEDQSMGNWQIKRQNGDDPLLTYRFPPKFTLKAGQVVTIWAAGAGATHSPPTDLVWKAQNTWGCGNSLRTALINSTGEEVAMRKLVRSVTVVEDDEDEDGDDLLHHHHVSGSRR

[2] = molecular target: T2, YTH domain family, member 2 (YTHDF2) (human, UniProt Q9Y5A9 1-579)
T2 construct: human YTHDF2; source: bought: ProtoArray human protein Microarray v5.0 (Life Technologies), individually purified and arrayed
T2 sequence (looked up): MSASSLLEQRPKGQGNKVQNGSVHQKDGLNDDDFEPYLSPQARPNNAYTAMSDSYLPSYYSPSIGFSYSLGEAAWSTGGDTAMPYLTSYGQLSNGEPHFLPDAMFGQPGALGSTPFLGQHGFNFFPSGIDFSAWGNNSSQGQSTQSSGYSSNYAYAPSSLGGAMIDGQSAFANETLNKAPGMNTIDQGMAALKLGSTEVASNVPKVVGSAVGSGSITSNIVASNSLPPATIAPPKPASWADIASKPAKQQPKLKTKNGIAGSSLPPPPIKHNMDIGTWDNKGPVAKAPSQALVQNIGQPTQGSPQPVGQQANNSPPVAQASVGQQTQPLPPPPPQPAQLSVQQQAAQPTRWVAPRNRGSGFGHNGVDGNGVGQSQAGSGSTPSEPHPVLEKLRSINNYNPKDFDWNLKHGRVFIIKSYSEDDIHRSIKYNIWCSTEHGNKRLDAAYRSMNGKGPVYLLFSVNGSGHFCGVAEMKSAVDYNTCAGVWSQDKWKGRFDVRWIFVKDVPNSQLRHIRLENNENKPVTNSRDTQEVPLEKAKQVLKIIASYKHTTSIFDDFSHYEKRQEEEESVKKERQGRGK

[3] = molecular target: T3, Cell cycle associated protein 1 (CAPRIN1), transcript variant 1 (human, UniProt Q14444-1 1-709)
T3 construct: human CAPRIN1, transcript variant 1; source: bought: ProtoArray human protein Microarray v5.0 (Life Technologies), individually purified and arrayed
T3 sequence (looked up): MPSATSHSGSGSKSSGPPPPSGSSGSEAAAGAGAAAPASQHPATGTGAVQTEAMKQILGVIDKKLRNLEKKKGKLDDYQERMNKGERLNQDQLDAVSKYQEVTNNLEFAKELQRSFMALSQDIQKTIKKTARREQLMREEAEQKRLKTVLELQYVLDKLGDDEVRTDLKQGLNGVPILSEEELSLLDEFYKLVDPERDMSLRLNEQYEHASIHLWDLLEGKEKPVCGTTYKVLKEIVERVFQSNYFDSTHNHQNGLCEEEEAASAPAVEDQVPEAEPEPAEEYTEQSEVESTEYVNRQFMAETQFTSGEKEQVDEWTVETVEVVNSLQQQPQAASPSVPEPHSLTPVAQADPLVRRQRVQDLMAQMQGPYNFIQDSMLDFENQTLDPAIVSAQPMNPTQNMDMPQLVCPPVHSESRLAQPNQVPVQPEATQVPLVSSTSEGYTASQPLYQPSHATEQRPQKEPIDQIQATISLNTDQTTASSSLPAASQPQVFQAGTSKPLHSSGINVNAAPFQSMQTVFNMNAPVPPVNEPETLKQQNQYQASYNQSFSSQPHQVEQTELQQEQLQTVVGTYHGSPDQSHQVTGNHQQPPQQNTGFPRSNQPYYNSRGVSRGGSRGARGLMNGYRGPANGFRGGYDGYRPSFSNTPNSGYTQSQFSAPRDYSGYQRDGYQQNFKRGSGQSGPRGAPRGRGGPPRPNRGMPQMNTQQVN

[4] = molecular target: RNA polymerase-associated protein RTF1 homolog (RTF1) (human, UniProt Q92541 1-710)

Measured: binding result

B1: recombinant human soluble endoglin (sEng; Glu26-Gly586) (domain or fragment, UniProt P17813 26-586, looked up)
chain: ETVHCDLQPVGPERGEVTYTTSQVSKGCVAQAPNAILEVHVLFLEFPTGPSQLELTLQASKQNGTWPREVLLVLSVNSSVFLHLQALGIPLHLAYNSSLVTFQEPPGVNTTELPSFPKTQILEWAAERGPITSAAELNDPQSILLRLGQAQGSLSFCMLEASQDMGRTLEWRPRTPALVRGCHLEGVAGHKEAHILRVLPGHSAGPRTVTVKVELSCAPGDLDAVLILQGPPYVSWLIDANHNMQIWTTGEYSFKIFPEKNIRGFKLPDTPQGLLGEARMLNASIVASFVELPLASIVSLHASSCGGRLQTSPAPIQTTPPKDTCSPELLMSLIQTKCADDAMTLVLKKELVAHLKCTITGLTFWDPSCEAEDRGDKFVLRSAYSSCGMQVSASMISNEAVVNILSSSSPQRKKVHCLNMDSLSFQLGLYLSPHFLQASNTIEPGQQSFVQVRVSPSVSEFLLQLDSCHLDLGPEGGTVELIQGRAAKGNCVSLLSPSPEGDPRFSFLLHFYTVPIPKTGTLSCTVALRPKTGSQDQEVHRTVFMRLNIISPDLSGCTSKG
notes: human endoglin (CD105), extracellular domain, Glu26-Gly586; The same bought protein was the probe of the array and the analyte of the BLI; also called recombinant human endoglin/CD105 protein; source: bought: R&D Systems (1097-EN), purified recombinant
binds: all assays above
